Data taken from patent US20120271036A1.
Like-named read-outs stand apart in the source and are kept apart here.

What was measured:
[1] = target: Cul5(N), human Cullin5 residues 2-384 (V341R, L345D) after removal of GST (human) (UniProt Q93034); assay: ITC, 30 C
[2] = target: Cul5(N), human Cullin5 residues 2-384 (V341R, L345D) after removal of GST (human) (UniProt Q93034)
[3] = target: Cul5(N), human Cullin5 residues 2-384 (V341R, L345D) after removal of GST (human) (UniProt Q93034); assay: ITC; one set of sites model
[4] = target: Cul5(N), human Cullin5 residues 2-384 (V341R, L345D) after removal of GST (human) (UniProt Q93034); assay: ITC, one set of sites fit of one isotherm with the actual BCvifVF concentration
[5] = target: Cul5(N), human Cullin5 residues 2-384 (V341R, L345D) after removal of GST (human) (UniProt Q93034); remark: listed apart in the source

Sequence of Cul5(N), human Cullin5 residues 2-384 (V341R, L345D) after removal of GST (human) (Q93034 other isoform, or with tags, fused parts or gaps V341R L345D V341R L345D): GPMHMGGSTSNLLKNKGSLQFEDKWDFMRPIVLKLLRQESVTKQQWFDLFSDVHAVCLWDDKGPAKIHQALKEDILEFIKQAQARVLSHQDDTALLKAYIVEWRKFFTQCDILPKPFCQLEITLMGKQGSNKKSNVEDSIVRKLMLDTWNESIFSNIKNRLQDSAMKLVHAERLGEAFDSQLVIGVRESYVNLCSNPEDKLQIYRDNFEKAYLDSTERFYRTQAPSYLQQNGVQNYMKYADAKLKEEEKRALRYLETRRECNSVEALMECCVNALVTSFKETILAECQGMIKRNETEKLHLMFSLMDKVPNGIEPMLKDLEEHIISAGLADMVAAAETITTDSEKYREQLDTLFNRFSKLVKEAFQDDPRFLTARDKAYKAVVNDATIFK

Row | Substance | ΔH [1] [kJ/mol] | N [2] | ΔS [2] | n (ITC binding stoichiometry) [3] | n (ITC binding stoichiometry, one set of sites model) [4] | n (ITC binding stoichiometry, one set of sites model) [5]
1 | BCvif95-192: EloB (1-118) / EloC (17-112) / Vif (95-192) (from UniProt P69723 95-192) | -21.9 | 1.01 | 11.1 | – | – | –
2 | BCvifSS: EloB (1-118) / EloC (17-112) / vif (95-192) (A123S, L124S) (from UniProt P69723 95-192) | -30.5 | – | – | 1.01 | – | –
3 | BCvifVF: EloB (1-118) / EloC (17-112) / vif (95-192) (A123V, L124F) (from UniProt P69723 95-192) | – | – | – | 0.43 | 0.451 | 0.901
